{"source": "patent US9428586B2", "about": "“Heparanase splice variant” (COMPUGEN LTD, priority 2010, dated 2016)", "molecules": {"B1": {"name": "T5: novel splice variant of heparanase; truncated, enzymatically inactive 169 amino acid protein (protein, listed as Homo sapiens)", "chain": "MLLRSKPALPPPLMLLLLGPLGPLSPGALPRPAQAQDVVDLDFFTQEPLHLVSPSFLSVTIDANLATDPRFLILLGSPKLRTLARGLSPAYLRFGGTKTDFLIFDPKKESTFEERSYWQSQVNQDICKYGSIPPDVEEKLRLEWPYQEQLLLREHYQKKFKNSTYSSKK"}}, "key": {"Erk": {"test_system": "Erk", "experiment": "Erk phosphorylation (immunoblot) in CAG myeloma and 293 cells", "format": "cell-based, human", "description": "FIG. 3. T5 augments Src phosphorylation. A. Over expression. CAG myeloma (left) and 293 (right) cells infected with heparanase (Hepa), T5, or control empty vector (Vo) were grown in the absence (−) or presence (+) of heparin (50 μg/ml) under serum-free conditions. Total cell lysates were subjected to immunoblotting applying anti-heparanase 1453 (upper and second panels), anti-phospho-Src (p-Src, third panels), anti-Src (fourth panels) anti-phospho-Erk (p-Erk, fifth panels), and anti-Erk2 (sixth panels) antibodies. Src phosphorylation index was calculated by densitometry analysis of phosphorylated Src levels divided by the total Src values. Data is presented as average fold increase ±SE of Src phosphorylation compared with control, Vo cells, set arbitrary to a value of 1 (lower panels) of five independent experiments. B. Gene silencing. Parental 293 cells were transfected with anti-heparanase, anti-T5, or control siRNAs. Total RNA was extracted and RT-PCR analysis was performed applying T5 (upper panel), heparanase (Hepa, second panel) and GAPDH (third panel) specific primers. Corresponding cell lysates were subjected to immunoblotting applying phospho-Src (p-Src, fourth panel), Src (fifth panel), phospho-Erk (p-Erk, sixth panel) and Erk2 (seventh panel) antibodies. Src phosphorylation index was calculated as above and is shown graphically in the lower panel. […]"}, "CAG myeloma cells": {"test_system": "CAG myeloma cells", "experiment": "CAG myeloma tumor xenograft development and immunohistochemistry", "format": "in vivo, athymic nude mice", "description": "FIG. 5. T5 enhances tumor xenograft development. Control (Vo), heparanase-, and T5-infected CAG myeloma cells were injected subcutaneously (1×10^6/0.1 ml) and tumor volume was calculated (A). At the end of the experiment on day 37, tumors were resected, photographed (A, inset) and weighted (B). C. Immunohistochemical analysis. Paraffin-embedded 5 micron sections were stained with hematoxilin & eosin (left column), anti-CD31 (second left column), and anti-smooth muscle actin (SMA, two right columns) antibodies. Note increased blood vessels density and maturation (recruitment of SMA-positive cells) in xenografts produced by heparanase- and T5-infected cells. Cells from exponential cultures of control-, heparanase-, and T5-infected CAG myeloma cells were detached with trypsin/EDTA, washed with PBS and brought to a concentration of 1×10^7 cells/ml. Cell suspension (1×10 6/0.1 ml) was inoculated subcutaneously at the right flank of 5-weeks old female athymic nude mice (n=7). Xenograft size was determined twice a week by externally measuring tumors in two dimensions using a caliper. At the end of the experiment, mice were sacrificed and xenografts were removed, weighted and fixed in formalin. Paraffin-embedded 5 micron sections were subjected to immunostaining with anti-PECAM-1 (CD31) or anti-smooth muscle actin (1A4, Sigma) antibodies, using the Envision kit, according to the manufacturer's (Dako, Glostrup, Denmark) instructions, as described (Fux, L., et al., 2009, Cancer Res 69, 1758-1767). All animal experiments were approved by the Animal Care Committee of the Technion, Haifa, Israel."}, "Src": {"test_system": "Src", "experiment": "Src phosphorylation (immunoblot, densitometry) in CAG myeloma cells", "format": "cell-based, human", "conditions": "infected CAG myeloma cells, serum-free", "description": "FIG. 3. T5 augments Src phosphorylation. A. Over expression. CAG myeloma (left) and 293 (right) cells infected with heparanase (Hepa), T5, or control empty vector (Vo) were grown in the absence (−) or presence (+) of heparin (50 μg/ml) under serum-free conditions. Total cell lysates were subjected to immunoblotting applying anti-heparanase 1453 (upper and second panels), anti-phospho-Src (p-Src, third panels), anti-Src (fourth panels) anti-phospho-Erk (p-Erk, fifth panels), and anti-Erk2 (sixth panels) antibodies. Src phosphorylation index was calculated by densitometry analysis of phosphorylated Src levels divided by the total Src values. Data is presented as average fold increase ±SE of Src phosphorylation compared with control, Vo cells, set arbitrary to a value of 1 (lower panels) of five independent experiments. B. Gene silencing. Parental 293 cells were transfected with anti-heparanase, anti-T5, or control siRNAs. Total RNA was extracted and RT-PCR analysis was performed applying T5 (upper panel), heparanase (Hepa, second panel) and GAPDH (third panel) specific primers. Corresponding cell lysates were subjected to immunoblotting applying phospho-Src (p-Src, fourth panel), Src (fifth panel), phospho-Erk (p-Erk, sixth panel) and Erk2 (seventh panel) antibodies. Src phosphorylation index was calculated as above and is shown graphically in the lower panel. Note decreased Src phosphorylation levels upon T5 down regulation.\nPreparation of cell lysates, protein blotting, and measurement of heparanase enzymatic activity were carried out as described previously (Zetser, A., et al., 2006, Cancer Res 66, 1455-1463; Fux, L., et al., 2009, Cancer Res 69, 1758-1767)."}, "Concanavalin A": {"target": "Concanavalin A (Canavalia ensiformis, UniProt P02866)", "conditions": "lysates of over expressing 293 cells", "description": "FIG. 7. […] A. Cell lysates. […] Control (Vo), heparanase and T5 transfected 293 cells were left untreated (−) or incubated with heparin (+, 50 μg/ml) for 20 h under serum-free conditions. […] B,C. Peptide analysis. Peptides corresponding to the heparin binding domain of heparanase (KKDC) or T5 (CKKK) which includes its unique three amino acids (SKK), and control scrambled (Scr) peptide were subjected to gel electrophoresis prior to or following incubation with heparin beads (+Heparin). C. Enzymatic activity."}, "[1]": {"test_system": "CAG myeloma, FaDu pharynx carcinoma and 293 cells", "experiment": "Colony formation in soft agar", "format": "cell-based, human", "conditions": "over expression in CAG myeloma, FaDu and 293 cells", "description": "FIG. 4. T5 augments cell proliferation. A. BrdU incorporation. Morphology of control (Con), heparanase (Hepa)- and T5-infected CAG myeloma cell cultures is shown in the upper panels. […] Sub-confluent cultures of control (Vo), heparanase (Hepa)- and T5-infected CAG cells were grown in serum-free medium for 20 h followed by incubation with BrdU (1:1000) for 2 h. Cells were then fixed and immunostained with anti BrdU monoclonal antibody. Positively stained, red-brown nuclei were counted vs. blue, hematoxilin counter-stained nuclei. At least 1000 cells were counted for each cell type and the percentage of positively stained cells is noted in each panel. Fold increase in BrdU incorporation is shown graphically on the right panel. Gene silencing. 293 cells were transfected with anti-GFP (si-GFP), anti-heparanase (si-Hepa) or anti-T5 siRNA oligonucleotides and BrdU incorporation was evaluated as above except that cells were kept in serum-containing medium (lower panels). Note 2-fold decrease in BrdU incorporation following heparanase or T5 gene silencing (lower right panel). B. Colony formation in soft agar. […]\nThree ml of DMEM containing 0.5% low melt agarose (Bio-Rad, Hercules, Calif.) and 10% fetal calf serum was poured into 60 mm petri dishes. […] Colonies were visualized and counted under a microscope after 2-5 weeks, as described."}}, "data": [{"molecule": "B1", "values": [{"measurement": "Erk phosphorylation upon over expression", "setting": "Erk", "result": "not affected"}, {"measurement": "pericytes associated with blood vessels (smooth muscle actin)", "setting": "CAG myeloma cells; CAG xenografts, immunohistochemistry", "result": "significantly increased number of pericytes"}, {"measurement": "average weight of xenografts", "setting": "CAG myeloma cells; day 37, subcutaneous infected CAG cells, control 58±11 mg", "result": "738 ± 114", "unit": "mg"}, {"measurement": "development of tumor xenografts after day 21 vs control cells", "setting": "CAG myeloma cells; subcutaneous infected CAG cells", "result": "markedly enhanced"}, {"measurement": "Src phosphorylation increase vs control Vo cells", "setting": "Src", "result": "comparable induction of Src phosphorylation"}, {"measurement": "interaction with the lectin Concanavalin A", "setting": "Concanavalin A", "result": "retained"}, {"measurement": "colony number, size and cell density in soft agar", "setting": "[1]", "result": "markedly increased"}]}]}
